B1: 7F10-H1K4-IgG4 (antibody, V domains shown)
VH: EVQLVESGGGLVQPGGSLRLSCATSGFTFSDYYMYWVRQAPGKRLEWVAYISYGGDSTFYPDTVRGRFTISRDNAKNSLYLQMNSLRAEDTAVYYCARPAPSAHSYYLDYWGQGTLLTVSS
VL: DIQMTQSTSSLSASVGDRVTITCRASQDISNYLNWYQQKPDGTVKLLIYYTSRLHSGLPSRFSGSGSGTDYTLTISSLQQEDIATYYCQQGKTLPFTFASGTKLEIK
notes: Humanized
B2: 7F10-H3K1-IgG4 (antibody, V domains shown)
VH: EVKLVESGGGLVQPGGSLRLSCATSGFTFSDYYMYWVRQAPEKRLEWVAYISYGGDSTFYPDTVRGRFTISRDNAKNALYLQMSRLKAEDTAVYYCARPAPSAHSYYLDYWGQGTTLTVSS
VL: DIQMTQSPSSLSASVGDRVTITCRASQDISNYLNWYQQKPGGAVKLLIYYTSRLHSGLPSRFSGSGSGTDFTFTISSLQPEDIATYYCQQGKTLPFTFASGTKLEIK
notes: Humanized
B3: 7F10-H3K2-IgG4 (antibody, V domains shown)
VH: EVKLVESGGGLVQPGGSLRLSCATSGFTFSDYYMYWVRQAPEKRLEWVAYISYGGDSTFYPDTVRGRFTISRDNAKNALYLQMSRLKAEDTAVYYCARPAPSAHSYYLDYWGQGTTLTVSS
VL: DIQMTQSPSSLSASVGDRVTITCRASQDISNYLNWYQQKPGGAVKLLIYYTSRLHSGLPSRFSGSGSGTDYTFTISSLQPEDIATYYCQQGKTLPFTFASGTKLEIK
notes: Humanized
B4: 7F10-H2K1-IgG4 (antibody, V domains shown)
VH: EVQLVESGGGLVQPGGSLRLSCATSGFTFSDYYMYWVRQAPGKRLEWVAYISYGGDSTFYPDTVRGRFTISRDNAKNSLYLQMSSLKAEDTAVYYCARPAPSAHSYYLDYWGQGTLLTVSS
VL: DIQMTQSPSSLSASVGDRVTITCRASQDISNYLNWYQQKPGGAVKLLIYYTSRLHSGLPSRFSGSGSGTDFTFTISSLQPEDIATYYCQQGKTLPFTFASGTKLEIK
notes: Humanized
B5: 7F10-H3K4-IgG4 (antibody, V domains shown)
VH: EVKLVESGGGLVQPGGSLRLSCATSGFTFSDYYMYWVRQAPEKRLEWVAYISYGGDSTFYPDTVRGRFTISRDNAKNALYLQMSRLKAEDTAVYYCARPAPSAHSYYLDYWGQGTTLTVSS
VL: DIQMTQSTSSLSASVGDRVTITCRASQDISNYLNWYQQKPDGTVKLLIYYTSRLHSGLPSRFSGSGSGTDYTLTISSLQQEDIATYYCQQGKTLPFTFASGTKLEIK
notes: Humanized
B6: 7F10-H2K2-IgG4 (antibody, V domains shown)
VH: EVQLVESGGGLVQPGGSLRLSCATSGFTFSDYYMYWVRQAPGKRLEWVAYISYGGDSTFYPDTVRGRFTISRDNAKNSLYLQMSSLKAEDTAVYYCARPAPSAHSYYLDYWGQGTLLTVSS
VL: DIQMTQSPSSLSASVGDRVTITCRASQDISNYLNWYQQKPGGAVKLLIYYTSRLHSGLPSRFSGSGSGTDYTFTISSLQPEDIATYYCQQGKTLPFTFASGTKLEIK
notes: Humanized
B7: 7F10-H2K4-IgG4 (antibody, V domains shown)
VH: EVQLVESGGGLVQPGGSLRLSCATSGFTFSDYYMYWVRQAPGKRLEWVAYISYGGDSTFYPDTVRGRFTISRDNAKNSLYLQMSSLKAEDTAVYYCARPAPSAHSYYLDYWGQGTLLTVSS
VL: DIQMTQSTSSLSASVGDRVTITCRASQDISNYLNWYQQKPDGTVKLLIYYTSRLHSGLPSRFSGSGSGTDYTLTISSLQQEDIATYYCQQGKTLPFTFASGTKLEIK
notes: Humanized
B8: 7F10-H3K3-IgG4 (antibody, V domains shown)
VH: EVKLVESGGGLVQPGGSLRLSCATSGFTFSDYYMYWVRQAPEKRLEWVAYISYGGDSTFYPDTVRGRFTISRDNAKNALYLQMSRLKAEDTAVYYCARPAPSAHSYYLDYWGQGTTLTVSS
VL: DIQMTQSTSSLSASVGDRVTITCRASQDISNYLNWYQQKPGGAVKLLIYYTSRLHSGLPSRFSGSGSGTDYTLTISSLQQEDIATYYCQQGKTLPFTFASGTKLEIK
notes: Humanized
B9: 6A7-mHvKv-IgG4 (antibody, V domains shown)
VH: QVQLQQPGAELVKPGASVKLSCKASGYTFISYYIYWVKQRPGQGLEWIGGINPRNGGTNFNEKFKSKATLTVDKSSSTAYMQLSSLTSEDSAVYYCTRHGNGVYWGQGTTLTVSS
VL: DVVMTQTPLSLPVSLGDQASISCRSSQSLLHSNGNTYLHWYLQKPGQSPNHLIYQVSNRFSGVPDRFSGSGSGTDFTLKISRVEAEDLGVYFCSQTTHVPWTFGGGTKLEIK
notes: Chimeric; also called chimeric anti-hCD40 antibody 6A7-mHvKv-IgG4
B10: 6A7-H2K2-IgG4 (antibody, V domains shown)
VH: QVQLVQSGAEVKKPGASVKVSCKASGYTFISYYIYWVRQAPGQGLEWIGGINPRNGGTNFNEKFKSRATLTVDTSISTAYMELSRLRSEDTAVYYCARHGNGVYWGQGTTVTVSS
VL: DVVMTQSPLSLPVTLGQPASISCRSSQSLLHSNGNTYLHWYQQRPGQSPNHLIYQVSNRFSGVPDRFSGSGSGTDFTLKISRVEAEDVGVYFCSQTTHVPWTFGGGTKVEIK
notes: Humanized
B11: 6A7-H2K1-IgG4 (antibody, V domains shown)
VH: QVQLVQSGAEVKKPGASVKVSCKASGYTFISYYIYWVRQAPGQGLEWIGGINPRNGGTNFNEKFKSRATLTVDTSISTAYMELSRLRSEDTAVYYCARHGNGVYWGQGTTVTVSS
VL: DVVMTQSPLSLPVTLGQPASISCRSSQSLLHSNGNTYLHWFQQRPGQSPRHLIYQVSNRFSGVPDRFSGSGSGTDFTLKISRVEAEDVGVYYCSQTTHVPWTFGGGTKVEIK
notes: Humanized
B12: 6A7-H4K1-IgG4 (antibody, V domains shown)
VH: QVQLVQSGAEVKKPGASVKLSCKASGYTFISYYIYWVKQAPGQGLEWIGGINPRNGGTNFNEKFKSRATLTVDTSISTAYMELSRLRSEDTAVYYCTRHGNGVYWGQGTTLTVSS
VL: DVVMTQSPLSLPVTLGQPASISCRSSQSLLHSNGNTYLHWFQQRPGQSPRHLIYQVSNRFSGVPDRFSGSGSGTDFTLKISRVEAEDVGVYYCSQTTHVPWTFGGGTKVEIK
notes: Humanized
B13: 6A7-H3K2-IgG4 (antibody, V domains shown)
VH: QVQLVQSGAEVKKPGASVKVSCKASGYTFISYYIYWVRQAPGQGLEWIGGINPRNGGTNFNEKFKSRATLTVDTSISTAYMELSRLRSEDTAVYYCTRHGNGVYWGQGTTVTVSS
VL: DVVMTQSPLSLPVTLGQPASISCRSSQSLLHSNGNTYLHWYQQRPGQSPNHLIYQVSNRFSGVPDRFSGSGSGTDFTLKISRVEAEDVGVYFCSQTTHVPWTFGGGTKVEIK
notes: Humanized
B14: 6A7-H3K1-IgG4 (antibody, V domains shown)
VH: QVQLVQSGAEVKKPGASVKVSCKASGYTFISYYIYWVRQAPGQGLEWIGGINPRNGGTNFNEKFKSRATLTVDTSISTAYMELSRLRSEDTAVYYCTRHGNGVYWGQGTTVTVSS
VL: DVVMTQSPLSLPVTLGQPASISCRSSQSLLHSNGNTYLHWFQQRPGQSPRHLIYQVSNRFSGVPDRFSGSGSGTDFTLKISRVEAEDVGVYYCSQTTHVPWTFGGGTKVEIK
notes: Humanized
B15: 6A7-H1K3-IgG4 (antibody, V domains shown)
VH: QVQLVQSGAEVKKPGASVKVSCKASGYTFISYYIYWVRQAPGQGLEWMGGINPRNGGTNFNEKFKSRVTLTVDTSISTAYMELSRLRSEDTAVYYCARHGNGVYWGQGTTVTVSS
VL: DVVMTQSPLSLPVTLGDPASISCRSSQSLLHSNGNTYLHWYQQRPGQSPNHLIYQVSNRFSGVPDRFSGSGSGTDFTLKISRVEAEDVGVYFCSQTTHVPWTFGGGTKLEIK
notes: Humanized
B16: 6A7-H1K2-IgG4 (antibody, V domains shown)
VH: QVQLVQSGAEVKKPGASVKVSCKASGYTFISYYIYWVRQAPGQGLEWMGGINPRNGGTNFNEKFKSRVTLTVDTSISTAYMELSRLRSEDTAVYYCARHGNGVYWGQGTTVTVSS
VL: DVVMTQSPLSLPVTLGQPASISCRSSQSLLHSNGNTYLHWYQQRPGQSPNHLIYQVSNRFSGVPDRFSGSGSGTDFTLKISRVEAEDVGVYFCSQTTHVPWTFGGGTKVEIK
notes: Humanized
B17: 6A7-H1K1-IgG4 (antibody, V domains shown)
VH: QVQLVQSGAEVKKPGASVKVSCKASGYTFISYYIYWVRQAPGQGLEWMGGINPRNGGTNFNEKFKSRVTLTVDTSISTAYMELSRLRSEDTAVYYCARHGNGVYWGQGTTVTVSS
VL: DVVMTQSPLSLPVTLGQPASISCRSSQSLLHSNGNTYLHWFQQRPGQSPRHLIYQVSNRFSGVPDRFSGSGSGTDFTLKISRVEAEDVGVYYCSQTTHVPWTFGGGTKVEIK
notes: Humanized
B18: 6A7-H4K3-IgG4 (antibody, V domains shown)
VH: QVQLVQSGAEVKKPGASVKLSCKASGYTFISYYIYWVKQAPGQGLEWIGGINPRNGGTNFNEKFKSRATLTVDTSISTAYMELSRLRSEDTAVYYCTRHGNGVYWGQGTTLTVSS
VL: DVVMTQSPLSLPVTLGDPASISCRSSQSLLHSNGNTYLHWYQQRPGQSPNHLIYQVSNRFSGVPDRFSGSGSGTDFTLKISRVEAEDVGVYFCSQTTHVPWTFGGGTKLEIK
notes: Humanized
B19: 6A7-H2K3-IgG4 (antibody, V domains shown)
VH: QVQLVQSGAEVKKPGASVKVSCKASGYTFISYYIYWVRQAPGQGLEWIGGINPRNGGTNFNEKFKSRATLTVDTSISTAYMELSRLRSEDTAVYYCARHGNGVYWGQGTTVTVSS
VL: DVVMTQSPLSLPVTLGDPASISCRSSQSLLHSNGNTYLHWYQQRPGQSPNHLIYQVSNRFSGVPDRFSGSGSGTDFTLKISRVEAEDVGVYFCSQTTHVPWTFGGGTKLEIK
notes: Humanized

Target: T1, Histidine-tagged human CD40 protein (hCD40-His) (human, UniProt P25942 21-193)
T1 construct: not shown: histidine tag
T1 sequence (P25942 21-193 limits assumed): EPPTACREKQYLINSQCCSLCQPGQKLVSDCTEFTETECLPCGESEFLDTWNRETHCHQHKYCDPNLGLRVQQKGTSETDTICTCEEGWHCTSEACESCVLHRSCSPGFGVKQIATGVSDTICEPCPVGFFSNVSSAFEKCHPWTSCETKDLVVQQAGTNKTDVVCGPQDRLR
Assay: SPR, Biacore T200; antibody on Protein A chip, hCD40-His injected; 1:1 fit
Method: The binding affinity of the anti-hCD40 antibodies were measured using surface plasmon resonance (SPR) using Biacore (Biacore, INC, Piscataway N.J.) T200 biosensor equipped with pre-immobilized Protein A sensor chips.
Anti-hCD40 antibodies were collected by transfecting CHO-S cells and then purified. The antibodies (1 μg/mL) were injected into Biacore T200 biosensor at 10 μL/min for about 24-33 seconds to achieve to a desired protein density (about 44-57 response units (RU)). […] Dissociation was monitored for 300 seconds. The chip was regenerated after the last injection of each titration with Glycine (pH 2.0, 30 μL/min for 12 seconds).

| Kd [nM] | koff [s⁻¹] | kon [M⁻¹ s⁻¹] | Binder |
| --- | --- | --- | --- |
| 278 | 0.0321 | 115000 | B1 |
| 430 | 0.0568 | 132000 | B2 |
| 380 | 0.0482 | 127000 | B3 |
| 540 | 0.065 | 120000 | B4 |
| 184 | 0.0274 | 149000 | B5 |
| 505 | 0.0534 | 106000 | B6 |
| 202 | 0.038 | 188000 | B7 |
| 238 | 0.0314 | 132000 | B8 |
| 2.6 | 0.000259 | 99400 | B9 |
| 189 | 0.00496 | 26300 | B10 |
| 298 | 0.00708 | 23700 | B11 |
| 23.9 | 0.000572 | 23900 | B12 |
| 5.74 | 0.000371 | 64600 | B13 |
| 20.8 | 0.000574 | 27600 | B14 |
| 136 | 0.0039 | 28700 | B15 |
| 187 | 0.00386 | 20600 | B16 |
| 280 | 0.00571 | 20400 | B17 |
| 3.49 | 0.000373 | 107000 | B18 |
| 111 | 0.00505 | 45300 | B19 |

Reference: patent publication US20250034271A1 (EUCURE BEIJING BIOPHARMA, published 2025)
